This note sets out measurements from article PMC6609335.

In assay [1] the target is Andes virus (ANDV) envelope glycoprotein Gc, wild type (Andes virus) (UniProt Q9E006). Put plainly: sucrose gradient sedimentation.
For assay [2] the target is unchanged. Kind of assay: native gel or EMSA.

As to “Andes virus (ANDV) envelope glycoprotein Gc, wild type (from UniProt Q9E006) (natural protein)”, the stoichiometry N in assay [1] and in assay [2] was 3 each time.
